From article PMC12787490, “PSA-Responsive Aptamer-Based Switchable Aggregates of Ultrasmall Gold Nanoparticles”

What was measured:
[1] = molecular target: T1, prostate-specific antigen (PSA) (human, UniProt P07288 25-261); assay: ELONA (direct); significant signal from 250 nM, 5 mM MgCl2; ELONA: PSA 250 ng/well adsorbed; aptamers 3.9-500 nM in PBS + 5 mM MgCl2, 1 h at 37 C; block 3% BSA + 100 nM ssDNA mix; wash PBS 0.05% Tween-20; details: protein: commercial; label: biotin; stem-loops nt 4-14 and 17-30 (predicted)
T1 sequence (P07288 25-261): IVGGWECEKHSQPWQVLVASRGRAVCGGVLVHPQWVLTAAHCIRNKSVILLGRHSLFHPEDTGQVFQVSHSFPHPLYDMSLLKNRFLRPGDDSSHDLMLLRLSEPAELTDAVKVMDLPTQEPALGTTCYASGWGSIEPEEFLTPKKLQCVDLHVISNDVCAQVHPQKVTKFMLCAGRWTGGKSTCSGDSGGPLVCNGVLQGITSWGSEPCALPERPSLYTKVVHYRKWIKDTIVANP

[2] = molecular target: T1, prostate-specific antigen (PSA); assay: ELONA (direct); significant signal from 250 nM; affinity comparable to AS2; 5 mM MgCl2; ELONA: PSA 250 ng/well adsorbed; aptamers 3.9-500 nM in PBS + 5 mM MgCl2, 1 h at 37 C; block 3% BSA + 100 nM ssDNA mix; wash PBS 0.05% Tween-20; details: protein: commercial; label: biotin; 15 bp duplex at 3' end of AS2-tail, 5' overhang 32 nt of AS2-tail
[3] = molecular target: T1, prostate-specific antigen (PSA); assay: DLS and plasmon shift (aggregate disassembly); response down to 10 fM PSA in buffer, 1 pM in filtered plasma; ELONA: PSA 250 ng/well adsorbed; aptamers 3.9-500 nM in PBS + 5 mM MgCl2, 1 h at 37 C; block 3% BSA + 100 nM ssDNA mix; wash PBS 0.05% Tween-20; details: protein: commercial; label: US-AuNP; 15 bp duplex at 3' end of AS2-tail, 5' overhang 32 nt; about 8 ssDNA per particle
[4] = molecular target: T1, prostate-specific antigen (PSA); assay: ELONA (direct); 3.9-500 nM aptamer, 5 mM MgCl2; ELONA: PSA 250 ng/well adsorbed; aptamers 3.9-500 nM in PBS + 5 mM MgCl2, 1 h at 37 C; block 3% BSA + 100 nM ssDNA mix; wash PBS 0.05% Tween-20; details: protein: commercial; label: biotin

B1: AS2-biotin (structured_DNA)
DNA: GGGCGGGGCGGACGAGACAGTAAGGGCTGTGGGTGTGGTG
modifications: 3' biotin
- binding result [1]: binds

B2: AS2-tail-biotin:RevAS2 (mixed)
DNA: GGGCGGGGCGGACGAGACAGTAAGGGCTGTGGGTGTGGTGTTTTTTT
?: AAAAAAACACCACAC
modifications: 3' biotin on AS2-tail
- binding result [2]: binds

B3: AS2-tail-thio:RevAS2-thio (AS2-US-AuNP-Aggregate) (mixed)
DNA: GGGCGGGGCGGACGAGACAGTAAGGGCTGTGGGTGTGGTGTTTTTTT
?: AAAAAAACACCACAC
modifications: 3' thiol on AS2-tail, 5' thiol on RevAS2; conjugated to gold nanoparticles
- binding result [3]: binds

B4: aPSA-biotin (ssDNA)
DNA: ATTAAAGCTCGCCATCAAATAGC
modifications: biotin
- binding result [4]: no binding
